According to patent publication US9834754B2, “Populations of hematopoietic progenitors and methods of enriching stem cells therefor” (University Health Network, priority 2011, dated 2017):

Tested on: H1 hESCs differentiated as embryoid bodies (EBs)
Experiment: Hematopoietic colony assay of hESC-derived EBs
Assay type: cell-based, human
Protocol: The hESC line H1 (Thomson et al., 1998) and the reprogrammed human iPS cell line (MSC-iPS1; (Park et al., 2008)) were used in this study. They were maintained on irradiated mouse embryonic fibroblasts in hESC media as described previously (Kennedy et al., 2007). Prior to differentiation, the cells were feeder-depleted by culturing on matrigel (BD Biosciences, Bedford, Mass.) in hESC media for 24 to 48 hours. To generate EBs, hPSCs were treated with collagenase B (1 mg/ml; Roche, Indianapolis, Ind.) for 20 minutes followed by a short trypsin-EDTA (0.05%) step. Cells were gently scraped with a cell scraper to form small aggregates (10-20 cells). Aggregates were resuspended in StemPro-34 (Invitrogen), supplemented with penicillin/streptomycin (10 ng/mL), L-glutamine (2 mM), ascorbic acid (1 mM), monothioglycerol (MTG, 4×10^−4M; Sigma), and transferrin (150 μg/mL). BMP-4 (10 ng/mL), bFGF (5 ng/mL), Activin A, 6 μM SB-431542, VEGF (15 ng/mL), Dkk (150 ng/mL), IL-6 (10 ng/mL), IGF-1 (25 ng/mL), IL-11 (5 ng/mL), SCF (50 ng/mL), EPO (2 U/mL final), TPO (30 ng/mL), IL-3 (30 ng/mL) and Flt-3L (10 ng/mL) were added as indicated. Cultures were maintained in a 5% CO2/5% O2/90% N2 environment for the first 8 days and then transferred to a 5% CO2/air environment. All recombinant factors are human and were purchased from R&D Systems (Minneapolis, Minn.).
Analysis of hematopoietic colony potential was performed by plating either 5×103-2.5×10^4 sorted cells or 2.5×104-5.0×104 unfractionated EB populations in 1% methylcellulose containing specific cytokines as described in detail previously (Kennedy et al., 2007). Colonies consisting of erythroid, erythroid/myeloid and myeloid (either macrophage or mast cell) cells were quantified after 10-14 days.

B1: Activin A: recombinant human factor purchased from R&D Systems, used for hematopoietic induction (protein, UniProt P08476 311-426, looked up)
Inhibin beta A chain: GLECDGKVNICCKKQFFVSFKDIGWNDWIIAPSGYHANYCEGECPSHIAGTSGSSLSFHSTVINHYRMRGHSPFANLKSCCVPTKLRPMSMLYYDDGQNIIKKDIQNMIVEECGCS
0.3 ng/mL Activin A
  induction of myeloid and erythroid progenitors: effectively induced both myeloid and erythroid progenitors
Increasing concentrations of Activin A, days 2-4, FIG. 1C
  myeloid progenitors in day 13 EBs: reduction in myeloid progenitors
Treatment between days 2 and 4 of differentiation, Activin A at increasing concentrations, FIG. 1C
  erythroid progenitors in day 13 EBs: increase in erythroid progenitors
